According to paper doi:10.1101/2025.11.21.687491v1:

Assays:
Experiment in all cases: purified protein
Settings in all cases: GSH co-substrate, pH 7.0, 37 °C
[1] = substrate: CCCCC/C=C\CC(/C=C/CCCCCCC(=O)O)OO
[2] = substrate: CCCCC/C=C/C=C/C(CCCCCCCC(=O)O)OO
[3] = substrate: CCCCCC(/C=C/C=C\CCCCCCCC(=O)O)OO
[4] = substrate: CCCC/C=C/C(C/C=C\CCCCCCCC(=O)O)OO
[5] = substrate: CCCCCC(/C=C/C=C/CCCCCCCC(=O)O)OO

B1: AtGSTU17 (U17) (Arabidopsis thaliana) (protein)
chain: MASSDVKLIGAWASPFVMRPRIALNLKSVPYEFLQETFGSKSELLLKSNPVHKKIPVLLHADKPVSESNIIVEYIDDTWSSSGPSILPSDPYDRAMARFWAAYIDEKWFVALRGFLKAGGEEEKKAVIAQLEEGNAFLEKAFIDCSKGKPFFNGDNIGYLDIALGCFLAWLRVTELAVSYKILDEAKTPSLSKWAENFCNDPAVKPVMPETAKLAEFAKKIFPKPQA
Km [1]: 9.27 µM | kcat [1]: 1.46 s⁻¹ | Km [2]: 8.97 µM | kcat [2]: 1.13 s⁻¹ | Km [3]: 10.36 µM | kcat [3]: 2.55 s⁻¹ | Km [4]: 20.4 µM | kcat [4]: 2.71 s⁻¹ | Km [5]: 24.65 µM | kcat [5]: 2.44 s⁻¹
